From paper PMC3299299, “Recombinant Expression and Characterization of Human and Murine ACE2: Species-Specific Activation of the Alternative Renin-Angiotensin-System” (International Journal of Hypertension, 2012)

Target: T1, recombinant murine ACE2 (angiotensin-converting enzyme 2), extracellular domain (murine), Q8R0I0
T1 chain: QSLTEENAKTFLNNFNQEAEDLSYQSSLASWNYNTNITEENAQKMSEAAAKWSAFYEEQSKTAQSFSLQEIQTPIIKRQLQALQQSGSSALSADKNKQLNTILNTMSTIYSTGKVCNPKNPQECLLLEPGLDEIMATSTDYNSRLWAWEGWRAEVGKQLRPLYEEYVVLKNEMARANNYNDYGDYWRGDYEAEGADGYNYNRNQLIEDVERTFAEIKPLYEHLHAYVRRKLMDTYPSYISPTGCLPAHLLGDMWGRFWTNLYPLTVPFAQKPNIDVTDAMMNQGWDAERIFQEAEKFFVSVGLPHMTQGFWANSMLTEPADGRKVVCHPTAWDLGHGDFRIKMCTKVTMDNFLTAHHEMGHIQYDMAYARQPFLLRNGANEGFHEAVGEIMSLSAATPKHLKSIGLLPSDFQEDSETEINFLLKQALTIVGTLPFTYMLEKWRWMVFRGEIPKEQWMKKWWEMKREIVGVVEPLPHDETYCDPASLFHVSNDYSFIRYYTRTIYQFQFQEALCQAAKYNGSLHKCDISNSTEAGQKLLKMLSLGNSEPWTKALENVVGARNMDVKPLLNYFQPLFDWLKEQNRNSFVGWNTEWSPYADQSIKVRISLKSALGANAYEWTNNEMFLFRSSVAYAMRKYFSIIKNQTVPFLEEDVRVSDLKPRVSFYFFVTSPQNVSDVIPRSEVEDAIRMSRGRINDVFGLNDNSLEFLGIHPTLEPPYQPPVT
Experiment: native gel or EMSA; native PAGE, 2 ug protein on a precast native 3-12% gradient gel, Bis/Tris-Tricine buffers, 150 V for 80 min, Coomassie stain; single band at approximately 170 kDa; monomer to dimer
Details: remark: other sources report otherwise

B1: recombinant murine ACE2 (angiotensin-converting enzyme 2), extracellular domain, Q8R0I0 18-740 (enzyme)
chain: T1 chain
- stoichiometry N: 2
